Results from article PMC12287161, “A bioactive soluble recombinant mouse LIGHT promotes effective tumor immune cell infiltration delaying tumor growth” (Journal of Molecular Medicine (Berlin, Germany), 2025).

T1: mHVEM:Fas (mouse | human, UniProt Q80WM9 39-206; P25445 169-335)
T1 chain: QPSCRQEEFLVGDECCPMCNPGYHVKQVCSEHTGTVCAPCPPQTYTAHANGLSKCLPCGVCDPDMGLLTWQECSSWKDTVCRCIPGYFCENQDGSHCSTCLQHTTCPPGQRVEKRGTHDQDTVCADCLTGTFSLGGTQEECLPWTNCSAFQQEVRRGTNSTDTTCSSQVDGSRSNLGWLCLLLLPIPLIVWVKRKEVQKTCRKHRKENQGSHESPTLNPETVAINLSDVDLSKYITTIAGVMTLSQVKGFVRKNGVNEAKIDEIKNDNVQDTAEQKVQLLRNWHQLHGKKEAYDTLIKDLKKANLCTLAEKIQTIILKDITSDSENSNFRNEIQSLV


Assays:
mHVEM:Fas = biological target: T1, mHVEM:Fas; experiment: cell-based or functional assay
[1] = biological target: the molecule itself; experiment: SEC; Superdex S200 Increase HR 10/30 in PBS, 0.55 ml/min, 250 µl of affinity-purified protein; 1 ml fractions analysed by Western blot and on reporter cells; column calibrated with protein standards

| Binder | EC50 of killing of mHVEM:Fas reporter cells (MTS/PMS) by conditioned supernatants of B16.F10 cells expressing Ig.Foldon-mLIGHT (mHVEM:Fas) | EC50 of killing of mHVEM:Fas reporter cells (MTS/PMS) by purified Ig.Foldon-mLIGHT (mHVEM:Fas) | stoichiometry N [1] |
| --- | --- | --- | --- |
| Ig.Foldon-mLIGHT (Fc fusion) GYIPEAPRDGQAYVRKDGEWVLLSTFLDGGKGSWEKLIQDQRSHQANPAAHLTGANASLIGIGGPLLWETRLGLAFLRGLTYHDGALVTMEPGYYYVYSKVQLSGVGCPQGLANGLPITHGLYKRTSRYPKELELLVSRRSPCGRANSSRVWWDSSFLGGVVHLEAGEEVVVRVPGNRLVRPRDGTRSYFGAFMV | 0.0019 µg/mL | 0.051 µg/mL | – |
| Flag-Foldon-mLIGHT (ligand, Foldon, small homotrimeric domain; mouse LIGHT (TNFSF14, CD258), aa 72-239 of the 239 amino acids-long protein; the majority ran as poorly active species of around 500 kDa; also called pIB-173; source: HEK-293T, conditioned supernatant) GYIPEAPRDGQAYVRKDGEWVLLSTFLDGGKGSWEKLIQDQRSHQANPAAHLTGANASLIGIGGPLLWETRLGLAFLRGLTYHDGALVTMEPGYYYVYSKVQLSGVGCPQGLANGLPITHGLYKRTSRYPKELELLVSRRSPCGRANSSRVWWDSSFLGGVVHLEAGEEVVVRVPGNRLVRPRDGTRSYFGAFMV | – | – | 3 |
